Reference: PMC6930692, “Superior Treg-Expanding Properties of a Novel Dual-Acting Cytokine Fusion Protein” (Frontiers in Pharmacology, 2019)

T1: mouse TNFR1-Fc (mouse, UniProt P25118 30-212)
T1 construct: mouse TNF receptor 1 (TNFR1) as an Fc fusion protein; neither the source of the protein nor the kind of Fc is told; Also used here as the TNFR1 of the L929 functional rows; also called mTNFR1-Fc
T1 sequence (looked up): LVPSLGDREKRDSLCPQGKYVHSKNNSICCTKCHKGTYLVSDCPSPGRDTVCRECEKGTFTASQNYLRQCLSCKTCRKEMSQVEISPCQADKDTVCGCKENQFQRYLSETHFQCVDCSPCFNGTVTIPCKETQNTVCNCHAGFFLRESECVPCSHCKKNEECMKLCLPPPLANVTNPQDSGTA

T2: mouse TNFR2-Fc (mouse, UniProt P25119 23-258)
T2 construct: mouse TNF receptor 2 (TNFR2) as an Fc fusion protein; neither the source of the protein nor the kind of Fc is told; Also used here as the TNFR2 of the functional rows (BV-2 cells, T cells, sTNFR2); also called mTNFR2-Fc
T2 sequence (looked up): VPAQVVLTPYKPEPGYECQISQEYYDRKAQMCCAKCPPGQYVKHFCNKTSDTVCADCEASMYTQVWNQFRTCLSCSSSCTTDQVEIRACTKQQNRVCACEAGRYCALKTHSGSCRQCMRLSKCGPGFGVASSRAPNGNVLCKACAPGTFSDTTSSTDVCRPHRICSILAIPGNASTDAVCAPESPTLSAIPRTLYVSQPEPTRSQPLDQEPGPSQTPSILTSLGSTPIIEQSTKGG

B1: soluble recombinant mouse TNF (ligand, UniProt P06804 80-235, looked up)
chain: LRSSSQNSSDKPVAHVVANHQVEEQLEWLSQRANALLANGMDLKDNQLVVPADGLYLVYSQVLFKGQGCPDYVLLTHTVSRFAISYQEKVNLLSAVKSPCPKDTPEGAELKPWYEPIYLGGVFQLEKGDQLSAEVNLPKYLDFAESGQVYFGVIAL
notes: soluble recombinant mouse tumor necrosis factor (TNF), wild type; Positive control; also called sTNF; wild-type soluble TNF
B2: EHD2-sc-mTNFR2 (ligand)
chain: PTVKILQSSCDGGGHFPPTIQLLCLVSGYTPGTINITWLEDGQVMDVDLSTASTTQEGELASTQSELTLSQKHWLSDRTYTCQVTYQGHTFEDSTKKCAPVAHVVANHQVEEQLEWLSQRANALLANGMDLKDNQLVVPADGLYLVYSQVLFKGQGCPDYVLLTHTVSRFAISYQEKVNLLSAVKSPCPKDTPEGAELKPWYEPIYLGGVFQLEKGDQLSAEVNLPKYLNFRESGQVYFGVIALPVAHVVANHQVEEQLEWLSQRANALLANGMDLKDNQLVVPADGLYLVYSQVLFKGQGCPDYVLLTHTVSRFAISYQEKVNLLSAVKSPCPKDTPEGAELKPWYEPIYLGGVFQLEKGDQLSAEVNLPKYLNFRESGQVYFGVIALPVAHVVANHQVEEQLEWLSQRANALLANGMDLKDNQLVVPADGLYLVYSQVLFKGQGCPDYVLLTHTVSRFAISYQEKVNLLSAVKSPCPKDTPEGAELKPWYEPIYLGGVFQLEKGDQLSAEVNLPKYLNFRESGQVYFGVIAL
B3: IL2-EHD2-sc-mTNFR2 (ligand)
chain: APTSSSTSSSTAEAQQQQQQQQQQQQHLEQLLMDLQELLSRMENYRNLKLPRMLTFKFYLPKQATELKDLQCLEDELGPLRHVLDLTQSKSFQLEDAENFISNIRVTVVKLKGSDNTFECQFDDESATVVDFLRRWIAFCQSIISTSPQPTVKILQSSCDGGGHFPPTIQLLCLVSGYTPGTINITWLEDGQVMDVDLSTASTTQEGELASTQSELTLSQKHWLSDRTYTCQVTYQGHTFEDSTKKCAPVAHVVANHQVEEQLEWLSQRANALLANGMDLKDNQLVVPADGLYLVYSQVLFKGQGCPDYVLLTHTVSRFAISYQEKVNLLSAVKSPCPKDTPEGAELKPWYEPIYLGGVFQLEKGDQLSAEVNLPKYLNFRESGQVYFGVIALPVAHVVANHQVEEQLEWLSQRANALLANGMDLKDNQLVVPADGLYLVYSQVLFKGQGCPDYVLLTHTVSRFAISYQEKVNLLSAVKSPCPKDTPEGAELKPWYEPIYLGGVFQLEKGDQLSAEVNLPKYLNFRESGQVYFGVIALPVAHVVANHQVEEQLEWLSQRANALLANGMDLKDNQLVVPADGLYLVYSQVLFKGQGCPDYVLLTHTVSRFAISYQEKVNLLSAVKSPCPKDTPEGAELKPWYEPIYLGGVFQLEKGDQLSAEVNLPKYLNFRESGQVYFGVIAL

How the values were obtained:
mouse TNFR1-Fc = molecular target: T1, mouse TNFR1-Fc; assay: ELISA; mouse TNFR1-Fc or TNFR2-Fc coated at 1 µg/ml in PBS; fusion proteins in 2% skim milk powder in PBS, 1 h at RT; detected with anti-TNF (HP8001) or anti-his-tag antibody and HRP-conjugated secondary antibody; details: both partners purified
[1] = molecular target: the molecule itself; assay: SDS-PAGE under non-reducing conditions; 2 µg purified fusion protein, 8% SDS-PAGE with and without 2-ME, Coomassie staining; disulfide-linked dimer
mouse TNFR2-Fc [2] = molecular target: T2, mouse TNFR2-Fc; assay: ELISA; mouse TNFR1-Fc or TNFR2-Fc coated at 1 µg/ml in PBS; fusion proteins in 2% skim milk powder in PBS, 1 h at RT; detected with anti-TNF (HP8001) or anti-his-tag antibody and HRP-conjugated secondary antibody; details: both partners purified
mouse TNFR2-Fc [3] = molecular target: T2, mouse TNFR2-Fc; assay: quartz crystal microbalance; TNFR2-Fc chemically immobilised on a carboxyl sensor chip at high density (270 Hz); PBST (PBS, 0.1% Tween 20) pH 7.4, 37°C; analytes 2 to 32 nM; Kd = koff/kon assuming 1:1 binding; details: both partners purified

Binder	binding result (mouse TNFR1-Fc)	stoichiometry N [1]	EC50 (mouse TNFR2-Fc [2])	Kd (mouse TNFR2-Fc [3])	kon (mouse TNFR2-Fc [3])
B1	binds	–	–	–	–
B2	–	2	0.031 nM	0.12 nM	1.2e+06 M⁻¹ s⁻¹
B3	–	2	0.053 nM	0.89 nM	589000 M⁻¹ s⁻¹
